These are literature values, as cited in paper PMC8699243.

Read-outs that look alike come from different tables or passages of the source.

The target of data set [1] is plasminogen (Homo sapiens) (UniProt P00747).
The target in data set [2] is t-PA (Homo sapiens) (UniProt P00750).
The target of a further data set is S100A4 (Homo sapiens) (UniProt P26447).
A further data set has as its target S100A10 (Homo sapiens) (UniProt P60903).
The target in data set [3] is plasminogen (Homo sapiens) (UniProt P00747). The source holds these as a separate data set.
In data set [4] the target is t-PA (Homo sapiens) (UniProt P00750). The source holds these as a separate data set.

Chain of UniProt P00747 (P00747 20-810): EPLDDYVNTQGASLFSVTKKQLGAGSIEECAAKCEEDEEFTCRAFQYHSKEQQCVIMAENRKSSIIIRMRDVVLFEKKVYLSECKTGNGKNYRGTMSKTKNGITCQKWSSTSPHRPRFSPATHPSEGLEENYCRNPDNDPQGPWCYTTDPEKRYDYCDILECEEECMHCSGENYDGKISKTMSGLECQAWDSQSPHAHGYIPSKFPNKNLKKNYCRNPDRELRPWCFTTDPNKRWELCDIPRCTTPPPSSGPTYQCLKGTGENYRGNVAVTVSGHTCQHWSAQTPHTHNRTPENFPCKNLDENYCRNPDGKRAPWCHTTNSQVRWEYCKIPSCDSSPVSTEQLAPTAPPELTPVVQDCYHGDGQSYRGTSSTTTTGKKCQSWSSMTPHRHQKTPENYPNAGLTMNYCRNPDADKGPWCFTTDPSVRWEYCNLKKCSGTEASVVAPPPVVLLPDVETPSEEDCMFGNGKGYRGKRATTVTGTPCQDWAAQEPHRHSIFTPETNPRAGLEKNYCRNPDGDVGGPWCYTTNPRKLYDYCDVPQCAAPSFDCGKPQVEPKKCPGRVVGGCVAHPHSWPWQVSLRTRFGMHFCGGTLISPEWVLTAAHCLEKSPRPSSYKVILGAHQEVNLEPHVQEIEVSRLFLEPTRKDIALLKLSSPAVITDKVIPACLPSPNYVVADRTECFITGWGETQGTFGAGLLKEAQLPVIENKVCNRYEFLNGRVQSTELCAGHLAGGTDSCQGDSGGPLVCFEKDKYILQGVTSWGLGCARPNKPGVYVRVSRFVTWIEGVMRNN
Chain of UniProt P00750 (P00750 36-562): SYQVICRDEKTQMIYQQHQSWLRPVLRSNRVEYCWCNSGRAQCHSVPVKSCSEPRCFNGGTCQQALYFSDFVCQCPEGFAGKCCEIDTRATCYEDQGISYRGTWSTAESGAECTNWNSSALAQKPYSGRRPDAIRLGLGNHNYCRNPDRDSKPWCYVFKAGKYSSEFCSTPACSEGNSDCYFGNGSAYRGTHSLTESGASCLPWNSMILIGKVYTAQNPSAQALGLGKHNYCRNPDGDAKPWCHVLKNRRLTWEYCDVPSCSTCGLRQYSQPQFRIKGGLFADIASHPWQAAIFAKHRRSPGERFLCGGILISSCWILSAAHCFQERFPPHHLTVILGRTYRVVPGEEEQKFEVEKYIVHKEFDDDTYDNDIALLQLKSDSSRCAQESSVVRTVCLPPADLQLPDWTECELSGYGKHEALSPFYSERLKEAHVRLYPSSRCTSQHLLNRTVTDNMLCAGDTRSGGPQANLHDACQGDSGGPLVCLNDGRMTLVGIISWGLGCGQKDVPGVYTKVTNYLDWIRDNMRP
Chain of UniProt P26447 (P26447 2-101): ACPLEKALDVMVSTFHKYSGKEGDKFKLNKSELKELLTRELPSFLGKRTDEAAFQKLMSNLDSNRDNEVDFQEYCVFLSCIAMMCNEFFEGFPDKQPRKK

For “AIIt (Annexin A2/S100A10 heterotetramer) (from UniProt P07355)”, the Kd in data set [1] is 110 nM; with t-PA (Homo sapiens) [2] it was 680 nM.
As for Annexin A2 (from UniProt P07355), the Kd with S100A4 (Homo sapiens) is 5000 nM; with S100A10 (Homo sapiens), 13 nM.
Turning to S100A10 (from UniProt P60903), the Kd is 1810 nM in data set [3] and 450 nM with t-PA (Homo sapiens) [4].

Broadly, the Kd is the equilibrium constant for the complex coming apart.
